Values of other authors as cited in article PMC8969216.

Biological target: SLAMF1 (Homo sapiens) (UniProt Q13291)

For SLAMF1 (from UniProt Q13291), the Kd is listed as 200 µM.
